Assay results as given in patent US20180105569A1 (INDIANA UNIVERSITY RESEARCH AND TECHNOLOGY, published 2018).
Where two headings read alike, the source gives them in different places. Numbered stars: 1 amine (or outer) side, 2 acyl side, 3 side chain; on linkers, the order of the positions; unused ones are H or OH. Square brackets hold non-standard residues; d marks the D form. Side chains are listed from the residue outwards. Ends that are not written are not given here. * marks the point of attachment. β2His = Beta2-His (beta2-homo amino acid form of His; γGlu = O=C(O)[C@H](CCC(=O)[*:2])N[*:1]; Desaminohistidyl = O=C(CCc1c[nH]cn1)*; Desaminotyrosyl = O=C(CCc1ccc(O)cc1)*; Palmitoyl = CCCCCCCCCCCCCCCC(=O)*; dthioAla = not defined here; thioAla = not defined here; Orn = NCCC[C@H](N)C(=O)O; Aib = CC(C)(N)C(=O)O; Sar = CNCC(=O)O

T1: GIP receptor (UniProt P48546 22-466, limits assumed)
T1 sequence (looked up): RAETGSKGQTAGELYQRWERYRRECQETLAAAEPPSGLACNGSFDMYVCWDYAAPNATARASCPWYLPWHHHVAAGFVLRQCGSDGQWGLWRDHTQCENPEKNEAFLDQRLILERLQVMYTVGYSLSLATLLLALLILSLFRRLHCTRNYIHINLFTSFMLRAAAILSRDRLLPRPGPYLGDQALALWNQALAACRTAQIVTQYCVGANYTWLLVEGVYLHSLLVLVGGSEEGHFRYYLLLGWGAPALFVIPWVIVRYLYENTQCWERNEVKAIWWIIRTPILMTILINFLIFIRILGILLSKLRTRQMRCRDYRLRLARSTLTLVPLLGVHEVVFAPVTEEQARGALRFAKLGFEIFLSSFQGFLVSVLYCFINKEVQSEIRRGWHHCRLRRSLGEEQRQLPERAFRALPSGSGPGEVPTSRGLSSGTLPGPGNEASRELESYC


Key:
Assay in all cases: cell-based or functional assay
[1] = target: glucagon receptor (UniProt P47871 26-477, limits assumed)
[2] = target: GLP-1 receptor (UniProt P43220 24-463, limits assumed)
[3] = target: T1, GIP receptor
[4] = target: T1, GIP receptor; remark: listed apart in the source

Chain of glucagon receptor (P47871 26-477 limits assumed): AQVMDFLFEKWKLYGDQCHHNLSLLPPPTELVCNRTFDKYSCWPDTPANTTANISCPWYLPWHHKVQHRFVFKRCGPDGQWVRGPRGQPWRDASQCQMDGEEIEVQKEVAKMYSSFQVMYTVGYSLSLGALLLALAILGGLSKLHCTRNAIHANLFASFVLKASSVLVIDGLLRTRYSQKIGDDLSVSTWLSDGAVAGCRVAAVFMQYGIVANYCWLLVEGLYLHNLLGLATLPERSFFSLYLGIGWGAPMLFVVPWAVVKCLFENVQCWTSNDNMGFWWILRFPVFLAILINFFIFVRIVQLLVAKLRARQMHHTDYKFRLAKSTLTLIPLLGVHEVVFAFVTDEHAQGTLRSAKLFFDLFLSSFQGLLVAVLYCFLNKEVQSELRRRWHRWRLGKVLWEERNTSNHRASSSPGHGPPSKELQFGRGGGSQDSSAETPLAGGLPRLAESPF

Row | Binder | EC50 at Glucagon Receptor (cAMP luciferase reporter, HEK293) [1] | EC50 at GLP-1 Receptor (cAMP luciferase reporter, HEK293) [2] | EC50 at GIP Receptor (cAMP luciferase reporter, HEK293) [3] | EC50 at GIP Receptor (cAMP luciferase reporter, HEK293) [4]
1 | H[Aib]QGTFTSDK([γGlu-Palmitoyl])SKYLDERAAQDFVQWLLDGGPSSGAPPPS-NH2 [peptide of SEQ ID NO: 10] | 5 pM | 5 pM | 3 pM | –
2 | Ac-[dY]AQGTFTSDK([γGlu-Palmitoyl])SKYLDERAAQDFVQWLLEGGPSSGAPPPS-NH2 [peptide of SEQ ID NO: 12] | 7 pM | 3 pM | 2 pM | –
3 | Ac-YAQGTFTSDK([γGlu-Palmitoyl])SKYLDERAAQDFVQWLLEGGPSSGAPPPS-NH2 [peptide of SEQ ID NO: 155] | – | – | – | 37 pM
4 | Ac-[dH]AQGTFTSDK([γGlu-Palmitoyl])SKYLDERAAQDFVQWLLEGGPSSGAPPPS-NH2 [peptide of SEQ ID NO: 13] | 2 pM | 4 pM | 4 pM | –
5 | Ac-[dY]GQGTFTSDK([γGlu-Palmitoyl])SKYLDERAAQDFVQWLLEGGPSSGAPPPS-NH2 [peptide of SEQ ID NO: 14] | 5 pM | 22 pM | 5 pM | –
6 | [dY]AQGTFTSDK([γGlu-Palmitoyl])SKYLDERAAQDFVQWLLEGGPSSGAPPPS-NH2 [peptide of SEQ ID NO: 15] | 50 pM | 4 pM | 8 pM | –
7 | [dH]AQGTFTSDK([γGlu-Palmitoyl])SKYLDERAAQDFVQWLLEGGPSSGAPPPS-NH2 [peptide of SEQ ID NO: 16] | 10 pM | 2 pM | 10 pM | –
8 | Ac-[dthioAla]AQGTFTSDK([γGlu-Palmitoyl])SKYLDERAAQDFVQWLLEGGPSSGAPPPS-NH2 (reading uncertain) [peptide of SEQ ID NO: 17] | 8 pM | 5 pM | 11 pM | –
9 | Ac-[thioAla]AQGTFTSDK([γGlu-Palmitoyl])SKYLDERAAQDFVQWLLEGGPSSGAPPPS-NH2 (reading uncertain) [peptide of SEQ ID NO: 21] | 6 pM | 26 pM | 40 pM | –
10 | [Desaminohistidyl]AQGTFTSDK([γGlu-Palmitoyl])SKYLDERAAQDFVQWLLEGGPSSGAPPPS-NH2 [peptide of SEQ ID NO: 22] | 17 pM | 3 pM | 41 pM | –
11 | [dH]GQGTFTSDK([γGlu-Palmitoyl])SKYLDERAAQDFVQWLLEGGPSSGAPPPS-NH2 [peptide of SEQ ID NO: 23] | 15 pM | 3 pM | 43 pM | –
12 | H[Aib]QGTFTSDK([γGlu-Palmitoyl])SKYLDERAAQDFVQWLLEGGPSSGAPPPS-NH2 [peptide of SEQ ID NO: 37] | 9 pM | 6 pM | 3 pM | –
13 | [β2His]AQGTFTSDK([γGlu-Palmitoyl])SKYLDERAAQDFVQWLLEGGPSSGAPPPS-NH2 [peptide of SEQ ID NO: 25] | 24 pM | 3 pM | 64 pM | –
14 | XAQGTFTSDKSKYLDERAAQDFVQWLLEGGPSSGAPPPS (position 1 His; position 2 β-Ala; C-terminal amide; other non-coded or acylated residues as in the sequence listing) [peptide of SEQ ID NO: 26] | 95 pM | 2 pM | 71 pM | –
15 | [dH]PQGTFTSDK([γGlu-Palmitoyl])SKYLDERAAQDFVQWLLEGGPSSGAPPPS-NH2 [peptide of SEQ ID NO: 27] | 34 pM | 3 pM | 80 pM | –
16 | H[Sar]QGTFTSDK([γGlu-Palmitoyl])SKYLDERAAQDFVQWLLEGGPSSGAPPPS-NH2 [peptide of SEQ ID NO: 28] | 22 pM | 2 pM | 81 pM | –
17 | [thioAla]GQGTFTSDK([γGlu-Palmitoyl])SKYLDERAAQDFVQWLLEGGPSSGAPPPS-NH2 (reading uncertain) [peptide of SEQ ID NO: 29] | 38 pM | 7 pM | 95 pM | –
18 | Ac-[Orn]AQGTFTSDK([γGlu-Palmitoyl])SKYLDERAAQDFVQWLLEGGPSSGAPPPS-NH2 [peptide of SEQ ID NO: 30] | 635 pM | 2 pM | 183 pM | –
19 | [Desaminohistidyl]GQGTFTSDK([γGlu-Palmitoyl])SKYLDERAAQDFVQWLLEGGPSSGAPPPS-NH2 [peptide of SEQ ID NO: 31] | 22 pM | 3 pM | 226 pM | –
20 | [thioAla]PQGTFTSDK([γGlu-Palmitoyl])SKYLDERAAQDFVQWLLEGGPSSGAPPPS-NH2 (reading uncertain) [peptide of SEQ ID NO: 33] | 121 pM | 5 pM | 430 pM | –
21 | Ac-QGQGTFTSDK([γGlu-Palmitoyl])SKYLDERAAQDFVQWLLEGGPSSGAPPPS-NH2 [peptide of SEQ ID NO: 34] | 163 pM | 611 pM | 436 pM | –
22 | [Desaminotyrosyl]AQGTFTSDK([γGlu-Palmitoyl])SKYLDERAAQDFVQWLLEGGPSSGAPPPS-NH2 [peptide of SEQ ID NO: 11] | 16 pM | 2 pM | 2 pM | –
